B1: pork trypsin (enzyme, UniProt P00761 9-231, looked up)
chain: IVGGYTCAANSIPYQVSLNSGSHFCGGSLINSQWVVSAAHCYKSRIQVRLGEHNIDVLEGNEQFINAAKIITHPNFNGNTLDNDIMLIKLSSPATLNSRVATVSLPRSCAAAGTECLISGWGNTKSSGSSYPSLLQCLKAPVLSDSSCKSSYPGQITGNMICVGFLEGGKDSCQGDSGGPVVCNGQLQGIVSWGYGCAQKNKPGVYTKVCNYVNWIQQTIAAN
B2: micro-plasmin (enzyme, human, UniProt P00747 562-810, looked up)
chain: APSFDCGKPQVEPKKCPGRVVGGCVAHPHSWPWQVSLRTRFGMHFCGGTLISPEWVLTAAHCLEKSPRPSSYKVILGAHQEVNLEPHVQEIEVSRLFLEPTRKDIALLKLSSPAVITDKVIPACLPSPNYVVADRTECFITGWGETQGTFGAGLLKEAQLPVIENKVCNRYEFLNGRVQSTELCAGHLAGGTDSCQGDSGGPLVCFEKDKYILQGVTSWGLGCARPNKPGVYVRVSRFVTWIEGVMRNN
notes: domain: micro-plasmin; Made as in Reed et al., 1999; also called human micro-plasmin
B3: native human α2-antiplasmin (other, UniProt P08697 40-491, looked up)
chain: NQEQVSPLTLLKLGNQEPGGQTALKSPPGVCSRDPTPEQTHRLARAMMAFTADLFSLVAQTSTCPNLILSPLSVALALSHLALGAQNHTLQRLQQVLHAGSGPCLPHLLSRLCQDLGPGAFRLAARMYLQKGFPIKEDFLEQSEQLFGAKPVSLTGKQEDDLANINQWVKEATEGKIQEFLSGLPEDTVLLLLNAIHFQGFWRNKFDPSLTQRDSFHLDEQFTVPVEMMQARTYPLRWFLLEQPEIQVAHFPFKNNMSFVVLVPTHFEWNVSQVLANLSWDTLHPPLVWERPTKVRLPKLYLKHQMDLVATLSQLGLQELFQAPDLRGISEQSLVVSGVQHQSTLELSEVGVEAAAATSIAMSRMSLSSFSVNRPFLFFIFEDTTGLPLFVGSVRNPNPSAPRELKEQQDSPGNKDFLQSLKGFPRGDKLFGPDLKLVPPMEEDYPQFGSPK
modifications: radioiodinated (125I) in the binding assays
notes: mature; Bought native protein; also called native human α2-AP; native α2-AP

Legend:
[1] = molecular target: B3; test: k1, rate constant of reversible complex formation, from continuous inhibition kinetics with S-2251
Protocol: (§1) Native α₂-AP (1.8 μM) was pre-incubated with or without of MAbs (49, 77, Dig-control; 1.8 μM or RWR 1.8 μM and 18 μM) for 60 min at 4° C. The fast inhibition of plasmin, micro-plasmin and trypsin was examined by a continuous method as described (Wiman, B. and Collen, D. On the kinetics of the reaction between human antiplasmin and plasmin. Eur J Biochem 1978; 84: 573-578). The serine protease (20 nM) was added to a cuvette containing S-2251 (500 μM) in 300 μl of TBS buffer, and the change in absorbance at 405 nm was recorded at 0.1-min intervals prior to and after the addition of 10 μl of α₂-AP (1.8 μM) or preformed α₂-AP/MAb complex. The final concentration of α₂-AP in the cuvette was 60 nM. The percentage of residual protease activity was calculated from the initial value (defined as 100%). The inhibition constant (i.e., k₁, the rate constant of reversible complex formation) was determined as described (Turner et al., 2002, J Biol. Chem. 277:33068-33074).

human Lys-plasmin [2] = molecular target: T1, human Lys-plasmin (human, UniProt P00747 97-810); test: cell-based or functional assay
human Lys-plasmin [3] = molecular target: T1, human Lys-plasmin; test: k1, rate constant of reversible complex formation, from continuous inhibition kinetics with S-2251
Protocol: as §1

Row | Binder | kon [1] | stoichiometry of inhibition (SI) (human Lys-plasmin [2]) | kon (human Lys-plasmin [3])
1 | B1 | 476000 M⁻¹ s⁻¹ |  | 
2 | B2 | 33000 M⁻¹ s⁻¹ |  | 
3 | B3 |  | 1.1 | > 2.6e+06 M⁻¹ s⁻¹
